Experimental findings from patent publication US11260100B2, “Compositions targeting the interaction domain between p27Kip1 and Brk and methods of use thereof to inhibit p27 Y phosphorylation and cdk4 activity” (The Research Foundation for the State University of New York, priority 2014, dated 2022) are described below.

The target of assay [1] is T1, cdk2 (Homo sapiens, UniProt P24941).
T1 construct: added to or expressed in MCF7 breast cancer cells on day 2 post plating; endogenous in cells; host or cells: MCF7 (ALT-MCF7 tetracycline-inducible line)
Kind of assay: Immunoblot of cdk2T160 as measure of activated cdk2 (FIG. 10). It is filed as cell-based. Conditions: MCF7, drugs at IC50. How it is done: FIG. 10: ALT BRK inhibits both CDK4 and CDK2. ALT, Palbociclib alone or in combination were added to or expressed in MCF7 breast cancer cells on day 2 post plating. Drugs were added at their IC50 concentration, based on previous results. ALT is expressed from an ALT-MCF7 tetracycline inducible cell line generated in the Blain lab. When tetracycline is added to the cell culture media, ALT is expressed in these cells. Vector: no tetracycline was added, so no ALT induction was detected. Drugs and media were replaced every two days. Cells were harvested every two days, lysed and used in immunoblot analysis. Actin: loading control. pRBser780 is a phospho-specific antibody that recognizes sites phosphorylated by cdk4, so is a measure of active cdk4. cdk2T160 recognizes a required phosphorylation event on residue […] and is a measure of activated cdk2.
Additional experiments were performed assessing activity of Brk in combination with Palbociclib. The data presented in FIGS. 9A and 9B reveal that Palbociclib and Brk inhibit proliferation for 2 days, and then resistance is observed (proliferation increases). Alt maintained arrest for roughly 10 days (50% inhibition of proliferation is detected). […] Alt-Brk/Palbociclib combination leads to a more durable cell cycle arrest. Mono therapy treated cells start to become resistant between day 8-10. […]
For orientation: Immunoblotting shows a protein as a band on a membrane.

In assay [2] the test system is MCF-7 inducible ALT cells. Kind of assay: Mouse xenograft model, MCF7-ALT tumors. It is filed as in vivo, NOD/SCID mice. Conditions: day 17; start volume 200 mm3; Palbociclib 100 mg/kg daily gavage, doxycycline 0.1 mg/ml in drinking water. As for the experimental part:
FIG. 14: ALT slows tumor growth in animals, and ALT and PD dual treatment causes tumor regression. MCF-7 inducible ALT cells were injected into the 4th mammary gland of NOD/SCID mice. Tumors were allowed to develop to a volume of 200 mm3, before treatment. Vehicle: daily gavage with PBS. PD: Daily gavage of Palbociclib 100 mg/kg. Doxy: 0.1 mg/ml doxycycline added to the drinking water to allow continuous uptake and induction of ALT in the human cancer cells. Doxy+PD: Daily gavage of Palbociclib 100 mg/kg and 0.1 mg/ml doxycycline added to the drinking water. Vehicle treated animals rapidly progressed and by 17 days, tumor volumes were >3000 mm PD treatment slowed down tumor growth but by day 17, tumors were >2500. […] However, dual ALT and PD (doxy/PD) treatment, caused tumor regression by […] (e.g., from 200 mm3 down to 0-40 mm3), by day 5, which was durable up to day 19.
NP-ALT was added to cell media in the absence of fetal bovine serum for 6 hours. This media was removed and replaced with FBS+media, and cells were allowed to recover for 2 days, at which time, cell counts were determined. Counts were standardized to the proliferation seen in the NO FBS untreated control. • Expression in vivo. […] Tumor volume was monitored every other day using digital calipers. […] Doxy+PD: Daily gavage of Palbociclib 100 mg/kg and 0.1 mg/ml doxycycline added to the drinking water. • Quantitative RT-PCR. […]

B1: Alt-Brk: alternative splice variant of Brk (SEQ ID NO: 17), 15 KD protein with SH3 domain, lacks kinase domain (protein, listed as Homo sapiens)
chain: MVSRDQAHLGPKYVGLWDFKSRTDEELSFRAGDVFHVARKEEQWWWATLLDEAGGAVAQGYVPHNYLAERETVESEPAGHAGCAALQDLAACRGPAAPERGGVLPQPARACELPQGPEPVPRPAAGRALPEARA
With B1, in assay [1], the “cdk2 activity (cdk2T160)” value is given as “inhibits cdk2”. Also, in assay [2], the tumor volume is given as roughly 1500 mm3.
